This test concerns the target TLND2AXH, ataxin-1 residues 410-561, recombinant protein for size exclusion chromatography. In words: SEC; analytical, Superdex-75 10/300 GL, 20 mM Tris-HCl pH 7, 150 mM NaCl, 1 mM TCEP; 200 ul of 150 uM protein incubated 24 h at 37 °C, each injected separately; 0.8 ml/min; dimer to monomers. (In gel filtration, larger molecules generally elute earlier.)

The stoichiometry N is the number of molecules, sites or subunits per partner or assembly.

In the case of “TLND2AXH, ataxin-1 residues 410-561, recombinant protein for size exclusion chromatography (domain or fragment)”, the stoichiometry N was 2.
